# Test results taken from the supplement of paper PMC10724198.
# ± gives the standard deviation of the averaged measurements.
# Assays:
# Saccharomyces cerevisiae [1] = test: protein stability index of tFT-peptide fusion (C-terminal peptide) (PSI (0-1 scale)); higher = more stable (slower turnover); conditions: genetic background: wild type; temperature: 30 C
# Saccharomyces cerevisiae [2] = test: as above
# Experimental: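 MPS profiling in S. cerevisiae of the tFT-X12 degron library: putative degron peptides plus stable controls, 12 aa, fused to the C-terminus of a sfGFP-mCherry timer. Cells are FACS-sorted into 8 mCherry/sfGFP bins and deep-sequenced. PSI runs from 0 (unstable) to 1 (stable). Backgrounds are wild type, das1Δ and doa10Δ at 30 °C, and wild type, das1Δ, cdc34-1 and cdc53-1 at 37 °C; 2-3 technical replicates each.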
# [3] = genetic background: cdc34-1, temperature: 37 C
# [4] = genetic background: cdc53-1, temperature: 37 C
# [5] = genetic background: das1 deletion, temperature: 30 C
# [6] = genetic background: das1 deletion, temperature: 37 C
# [7] = genetic background: doa10 deletion, temperature: 30 C
# [8] = genetic background: wild type, temperature: 30 C
# [9] = genetic background: wild type, temperature: 37 C
# 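Note: PSI is a weighted mean of sequencing reads over stability bins, variants kept only with over 10 reads, mCherry proximal and sfGFP distal, peptide attached via GGGS linker.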
Sequence,protein stability index (Saccharomyces cerevisiae [1]),protein stability index (Saccharomyces cerevisiae [2]; [3]),protein stability index (Saccharomyces cerevisiae [2]; [4]),protein stability index (Saccharomyces cerevisiae [2]; [5]),protein stability index (Saccharomyces cerevisiae [2]; [6]),protein stability index (Saccharomyces cerevisiae [2]; [7]),protein stability index (Saccharomyces cerevisiae [2]; [8]),protein stability index (Saccharomyces cerevisiae [2]; [9])
EVTRMLRVVREI,0.456 ± 0.065,0.689 ± 0.035,0.761 ± 0.032,0.631 ± 0.026,0.768 ± 0.016,0.322 ± 0.0093,0.38 ± 0.032,0.588 ± 0.02
WVFVETVFLVCG,0.25 ± 0.02,0.147 ± 0.046,0.226 ± 0.04,0.176 ± 0.038,0.3159 ± 0.0011,0.142 ± 0.012,0.162 ± 0.03,0.2848 ± 0.0003
LGVVLFCFRFCR,0.477 ± 0.005,0.464 ± 0.0074,0.556 ± 0.028,0.391 ± 0.022,0.598 ± 0.022,0.353 ± 0.0068,0.371 ± 0.027,0.543 ± 0.019
VCFLCIWLYSED,0.344 ± 0.026,0.268 ± 0.028,0.358 ± 0.013,0.227 ± 0.041,0.4305 ± 0.004,0.218 ± 0.017,0.221 ± 0.033,0.418 ± 0.056
GESCGGSERRVG,0.643 ± 0.3,0.69 ± 0.019,0.7319 ± 0.0058,0.637 ± 0.009,0.7352 ± 0.0033,0.636 ± 0.024,0.666 ± 0.031,0.6897 ± 0.0056
GLLVFRCINLRC,0.357 ± 0.038,0.449 ± 0.013,0.47 ± 0.0085,0.429 ± 0.045,0.5558 ± 0.005,0.421 ± 0.021,0.357 ± 0.03,0.471 ± 0.017
RRFKKTEIIKNN,0.247 ± 0.004,0.625 ± 0.024,0.765 ± 0.048,0.653 ± 0.022,0.7804 ± 0.0062,0.1324 ± 0.00038,0.143 ± 0.053,0.29 ± 0.048
YVWPKRRGLRVA,0.433 ± 0.013,0.611 ± 0.036,0.674 ± 0.023,0.467 ± 0.03,0.679 ± 0.009,0.197 ± 0.019,0.261 ± 0.038,0.49 ± 0.025
LVLGLYGVWLVV,0.345 ± 0.015,0.262 ± 0.005,0.179 ± 0.022,0.254 ± 0.026,0.4104 ± 0.0027,0.355 ± 0.015,0.243 ± 0.024,0.3561 ± 0.0035
GGWGVFGVWVWM,0.324 ± 0.0082,0.476 ± 0.051,0.557 ± 0.0062,0.429 ± 0.027,0.59 ± 0.0025,0.186 ± 0.0072,0.214 ± 0.031,0.422 ± 0.012
FVSFTVSFSVVV,0.379 ± 0.032,0.296 ± 0.018,0.38 ± 0.031,0.334 ± 0.025,0.417 ± 0.01,0.357 ± 0.031,0.342 ± 0.0055,0.382 ± 0.0063
RALYLLALVGVS,0.362 ± 0.11,0.234 ± 0.0075,0.254 ± 0.02,0.223 ± 0.034,0.371 ± 0.0042,0.169 ± 0.0096,0.214 ± 0.024,0.3484 ± 0.0029
GLSLVCWIVVLG,0.306 ± 0.014,0.153 ± 0.033,0.202 ± 0.066,0.189 ± 0.037,0.347 ± 0.017,0.1899 ± 0.0016,0.178 ± 0.032,0.318 ± 0.0055
FLFFRFLVGCCF,0.3731 ± 0.003,0.406 ± 0.0083,0.396 ± 0.0095,0.339 ± 0.032,0.4545 ± 0.0039,0.29943 ± 0.00022,0.311 ± 0.0085,0.427 ± 0.017
GGGWAVLLWVQV,0.406 ± 0.022,0.387 ± 0.019,0.457 ± 0.043,0.339 ± 0.029,0.476 ± 0.0087,0.29 ± 0.01,0.317 ± 0.017,0.442 ± 0.007
SFCVLLQFCVLV,0.0186 ± 0.026,0.412 ± 0.0095,0.432 ± 0.0084,0.351 ± 0.021,0.461 ± 0.011,0.336 ± 0.0041,0.3381 ± 0.0012,0.4258 ± 0.0029
IKSIKQNKIKTI,0.292 ± 0.008,0.619 ± 0.051,0.648 ± 0.021,0.653 ± 0.029,0.699 ± 0.026,0.186 ± 0.013,0.171 ± 0.079,0.246 ± 0.032
CWLFCACFVRLV,0.101 ± 0.0076,0.125 ± 0.014,0.154 ± 0.0052,0.211 ± 0.019,0.333 ± 0.015,0.0691 ± 0.0032,0.0636 ± 0.0022,0.07618 ± 0.00043
GMLIYVIGGLSH,0.508 ± 0.06,0.652 ± 0.016,0.652 ± 0.04,0.435 ± 0.027,0.667 ± 0.017,0.438 ± 0.011,0.4464 ± 0.0034,0.626 ± 0.019
RSWLCFIVFGLF,0.313 ± 0.011,0.368 ± 0.027,0.413 ± 0.03,0.317 ± 0.03,0.485 ± 0.015,0.238 ± 0.0067,0.234 ± 0.014,0.347 ± 0.011

Sequence,protein stability index (Saccharomyces cerevisiae [1]),protein stability index (Saccharomyces cerevisiae [2]; [3]),protein stability index (Saccharomyces cerevisiae [2]; [4]),protein stability index (Saccharomyces cerevisiae [2]; [5]),protein stability index (Saccharomyces cerevisiae [2]; [6]),protein stability index (Saccharomyces cerevisiae [2]; [7]),protein stability index (Saccharomyces cerevisiae [2]; [8]),protein stability index (Saccharomyces cerevisiae [2]; [9])
SFFCTRVLWVFQ,0.157 ± 0.023,0.534 ± 0.017,0.612 ± 0.025,0.539 ± 0.022,0.6285 ± 0.0029,0.0925 ± 0.004,0.0846 ± 0.027,0.149 ± 0.029
LLLPSAPFLFLL,0.2954 ± 0.0012,0.305 ± 0.015,0.256 ± 0.0043,0.307 ± 0.041,0.435 ± 0.029,0.3387 ± 0.0022,0.201 ± 0.017,0.288 ± 0.014
SRCLALVICYRV,0.265 ± 0.011,0.539 ± 0.041,0.582 ± 0.031,0.439 ± 0.021,0.5979 ± 0.0043,0.152 ± 0.016,0.185 ± 0.024,0.3 ± 0.0041
VRVWLLACASKG,0.281 ± 0.014,0.3332 ± 0.00082,0.423 ± 0.026,0.236 ± 0.0066,0.378 ± 0.019,0.228 ± 0.037,0.24 ± 0.015,0.3609 ± 0.0016
VGVLWALIVGVR,0.251 ± 0.035,0.167 ± 0.011,0.226 ± 0.02,0.191 ± 0.035,0.36 ± 0.0087,0.159 ± 0.0094,0.18 ± 0.012,0.289 ± 0.043
CVFFPFLGVCYV,0.425 ± 0.017,0.4206 ± 0.0039,0.43047 ± 8.6e-05,0.333 ± 0.025,0.473 ± 0.0093,0.288 ± 0.01,0.336 ± 0.019,0.451 ± 0.0089
ALWRAWLRLRIW,0.205 ± 0.0025,0.517 ± 0.054,0.591 ± 0.03,0.582 ± 0.019,0.733 ± 0.016,0.143 ± 0.0041,0.124 ± 0.0037,0.0985 ± 0.012
FELVWLCIIGAL,0.173 ± 0.04,0.415 ± 0.012,0.507 ± 0.031,0.331 ± 0.031,0.516 ± 0.01,0.106 ± 0.0082,0.122 ± 0.019,0.2271 ± 0.0017
ASPLRLFIPFLF,0.312 ± 0.058,0.678 ± 0.071,0.76 ± 0.017,0.632 ± 0.034,0.755 ± 0.036,0.192 ± 0.0066,0.211 ± 0.026,0.413 ± 0.0079
LASWVVFIWFLW,0.329 ± 0.077,0.253 ± 0.026,0.348 ± 0.012,0.278 ± 0.018,0.41 ± 0.01,0.281 ± 0.031,0.25 ± 0.043,0.423 ± 0.041
ASAYCCMITRLN,0.172 ± 0.042,0.485 ± 0.09,0.574 ± 0.086,0.629 ± 0.012,0.611 ± 0.047,0.0987 ± 0.011,0.0882 ± 0.026,0.1737 ± 0.00037
VGAGVFAWLWVA,0.199 ± 0.024,0.533 ± 0.02,0.664 ± 0.016,0.59 ± 0.016,0.7101 ± 0.001,0.128 ± 0.025,0.145 ± 0.024,0.135 ± 0.0078
WCCCVSGFVWWM,0.526 ± 0.11,0.563 ± 0.012,0.6296 ± 0.0022,0.491 ± 0.03,0.633 ± 0.021,0.458 ± 0.011,0.465 ± 0.015,0.602 ± 0.017
LRSVVFFCRTLL,0.5 ± 0.0099,0.677 ± 0.045,0.7436 ± 0.0044,0.623 ± 0.014,0.731 ± 0.013,0.3373 ± 0.0013,0.362 ± 0.015,0.566 ± 0.017
FICYDRILTVYY,0.454 ± 0.034,0.479 ± 0.0097,0.564 ± 0.045,0.394 ± 0.029,0.524 ± 0.026,0.369 ± 0.043,0.368 ± 0.024,0.489 ± 0.031
LDFPPLRLILRL,0.538 ± 0.064,0.601 ± 0.019,0.609 ± 0.0072,0.584 ± 0.035,0.6464 ± 0.0014,0.658 ± 0.017,0.538 ± 0.049,0.6071 ± 0.0026
VCLFFFGYWCCL,0.501 ± 0.024,0.565 ± 0.066,0.555 ± 0.026,0.469 ± 0.015,0.566 ± 0.0067,0.493 ± 0.017,0.479 ± 0.0093,0.53 ± 0.011
FFIMFFDFWGYF,0.447 ± 0.079,0.378 ± 0.01,0.462 ± 0.021,0.335 ± 0.023,0.624 ± 0.075,0.319 ± 0.0034,0.373 ± 0.047,0.57 ± 0.028
RTSRPVRLFRIH,0.402 ± 0.06,0.753 ± 0.031,0.83846 ± 4.9e-05,0.656 ± 0.022,0.78 ± 0.009,0.26 ± 0.051,0.279 ± 0.046,0.448 ± 0.0097
